One series deals with T1, full-length TgCBS (Toxoplasma gondii, UniProt A0A125YSJ9).
T1 construct: gene TGME49_259180; full-length, residues 1-514; N-terminal 6xHis tag; E. coli Rosetta (DE3); ~57 kDa subunit; mainly dimer
T1 sequence (A0A125YSJ9 1-514): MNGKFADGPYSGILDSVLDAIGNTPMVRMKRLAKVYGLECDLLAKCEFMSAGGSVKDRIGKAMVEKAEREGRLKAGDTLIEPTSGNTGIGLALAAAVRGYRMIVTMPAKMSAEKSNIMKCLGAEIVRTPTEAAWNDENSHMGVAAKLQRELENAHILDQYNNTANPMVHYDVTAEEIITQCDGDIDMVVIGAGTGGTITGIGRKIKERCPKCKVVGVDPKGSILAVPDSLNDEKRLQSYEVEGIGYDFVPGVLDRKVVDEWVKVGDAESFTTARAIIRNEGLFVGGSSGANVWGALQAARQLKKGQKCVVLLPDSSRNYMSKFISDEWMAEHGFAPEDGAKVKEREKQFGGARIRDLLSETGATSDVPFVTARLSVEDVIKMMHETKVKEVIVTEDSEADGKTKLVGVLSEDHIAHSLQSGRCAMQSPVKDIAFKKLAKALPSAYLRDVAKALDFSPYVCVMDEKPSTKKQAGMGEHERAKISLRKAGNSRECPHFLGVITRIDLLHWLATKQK
In words: continuous CBL-LDH coupled assay. Particulars: saturating L-Ser and L-Hcys; pH 9, 37 °C; activity after heat pre-treatment or trypsinolysis. Type of series: biochemical.

The next series has as its target T2, TgCBS R353* (Toxoplasma gondii, UniProt A0A125YSJ9).
T2 construct: gene TGME49_259180; C-terminally truncated (stop codon at R353; residues 353-514, Bateman module, removed), residues 1-352; N-terminal 6xHis tag; pET21a, E. coli Rosetta (DE3); 39 kDa; mainly dimer
The experiment in a line: UV-Vis absorption ([…] nm internal aldimine); PLP content by NaOH, […] nm. Particulars: stoichiometry; covalent internal aldimine, as purified. The class given is binding.

Series [1] deals with Proteolysed full-length TgCBS (39 kDa trypsin-resistant core) (Toxoplasma gondii). The experiment in a line: SEC; 250 ug TgCBS incubated with trypsin 1:200 (w/w) for 120 min, stopped with a two-fold weight excess of soybean trypsin inhibitor, loaded on Superdex 200 10/300 GL; TgCBS R353* at 0.5 mg/mL run for comparison.
Series [2] concerns the molecule itself. In words: native gel or EMSA; native PAGE at 8, 9, 10 and 12% polyacrylamide, 10 ug/lane, Coomassie staining, Ferguson plot analysis with molecular mass standards.
Series [3] concerns the molecule itself. In words: SEC; Superdex 200 10/300 GL, protein at 1 mg/mL, 20 mM sodium phosphate buffer pH 8.5, 150 mM NaCl, 0.1 mM DTT; calibrated with standard proteins. (In general: In gel filtration, larger molecules generally elute earlier.)

This is an account of results in article PMC9331509, “Insights into Domain Organization and Regulatory Mechanism of Cystathionine Beta-Synthase from Toxoplasma gondii” (International Journal of Molecular Sciences, 2022).

Values joined by “and” are separate entries in the source; they are usually repeats but may differ in a detail not shown here. Equal values may be shown once. Marks after values point to notes of the source that are not given here.

For the molecule `N[C@@H](CCS)C(=O)O` [L-Hcys], the “continuous CBL-LDH coupled assay” value at full-length TgCBS was “at saturating concentration of L-Ser and L-Hcys in the canonical reaction”. The same measure, in the same setting: the entry for `N[C@@H](CO)C(=O)O` [L-Ser] is “full-length TgCBS (solid triangles) and TgCBS R353* (open circles) on their steady-state initial velocity”.

On TgCBS R353*, `Cc1ncc(COP(=O)(O)O)c(C=O)c1O` [PLP] showed a PLP per monomer of 0.9 ± 0.1 mol/mol. By stoichiometry N is commonly meant a count of units in the complex or per binding partner. Consider “Proteolysed full-length TgCBS (39 kDa trypsin-resistant core) (from UniProt A0A125YSJ9 1-514) (domain or fragment)”, for which the stoichiometry N in series [1] was 2.

B1: TgCBS R353* (TgCBS lacking the C-terminal Bateman module) (domain or fragment, Toxoplasma gondii, UniProt A0A125YSJ9 1-352, looked up)
chain: MNGKFADGPYSGILDSVLDAIGNTPMVRMKRLAKVYGLECDLLAKCEFMSAGGSVKDRIGKAMVEKAEREGRLKAGDTLIEPTSGNTGIGLALAAAVRGYRMIVTMPAKMSAEKSNIMKCLGAEIVRTPTEAAWNDENSHMGVAAKLQRELENAHILDQYNNTANPMVHYDVTAEEIITQCDGDIDMVVIGAGTGGTITGIGRKIKERCPKCKVVGVDPKGSILAVPDSLNDEKRLQSYEVEGIGYDFVPGVLDRKVVDEWVKVGDAESFTTARAIIRNEGLFVGGSSGANVWGALQAARQLKKGQKCVVLLPDSSRNYMSKFISDEWMAEHGFAPEDGAKVKEREKQFGGA
notes: Cystathionine beta-synthase (TgCBS), Toxoplasma gondii, residues 1-352 (catalytic domain and interdomain linker); 39 kDa subunit; made by site-directed mutagenesis on pET21a-TgCBS; also called C-terminally truncated TgCBS; truncated TgCBS; source: E. coli Rosetta (DE3), purified (Ni-sepharose, as the wild-type enzyme); not shown: His6, N-terminal, kept
On to B1, for which the “stoichiometry N” value was ~4 and ~2 in series [2]; 2 and 4 in series [3].

B2: Full-length cystathionine beta-synthase from Toxoplasma gondii (enzyme, UniProt A0A125YSJ9 1-514, looked up)
chain: MNGKFADGPYSGILDSVLDAIGNTPMVRMKRLAKVYGLECDLLAKCEFMSAGGSVKDRIGKAMVEKAEREGRLKAGDTLIEPTSGNTGIGLALAAAVRGYRMIVTMPAKMSAEKSNIMKCLGAEIVRTPTEAAWNDENSHMGVAAKLQRELENAHILDQYNNTANPMVHYDVTAEEIITQCDGDIDMVVIGAGTGGTITGIGRKIKERCPKCKVVGVDPKGSILAVPDSLNDEKRLQSYEVEGIGYDFVPGVLDRKVVDEWVKVGDAESFTTARAIIRNEGLFVGGSSGANVWGALQAARQLKKGQKCVVLLPDSSRNYMSKFISDEWMAEHGFAPEDGAKVKEREKQFGGARIRDLLSETGATSDVPFVTARLSVEDVIKMMHETKVKEVIVTEDSEADGKTKLVGVLSEDHIAHSLQSGRCAMQSPVKDIAFKKLAKALPSAYLRDVAKALDFSPYVCVMDEKPSTKKQAGMGEHERAKISLRKAGNSRECPHFLGVITRIDLLHWLATKQK
notes: the cited crystal structure PDB 6XWL is of a construct lacking an internal loop (TgCBS Δ466-491); PLP-dependent enzyme; also called TgCBS; full-length TgCBS; source: E. coli Rosetta (DE3), purified (Ni-sepharose); not shown: His6, N-terminal, kept
Regarding B2, the “stoichiometry N” value in series [3] was 2 and 4.
